Assay results: patent publication US20180057604A1 (Genentech, published 2018)
Numbering of substitutions follows the chain as printed. Names may count otherwise.

T1: cyno TfR extracellular domain (analogous construct to human TfR ecd) (cynomolgus monkey, UniProt Q5RDH6 87-760 (Pongo abelii entry))
T1 construct: also called cynoTfR ecd
T1 chain: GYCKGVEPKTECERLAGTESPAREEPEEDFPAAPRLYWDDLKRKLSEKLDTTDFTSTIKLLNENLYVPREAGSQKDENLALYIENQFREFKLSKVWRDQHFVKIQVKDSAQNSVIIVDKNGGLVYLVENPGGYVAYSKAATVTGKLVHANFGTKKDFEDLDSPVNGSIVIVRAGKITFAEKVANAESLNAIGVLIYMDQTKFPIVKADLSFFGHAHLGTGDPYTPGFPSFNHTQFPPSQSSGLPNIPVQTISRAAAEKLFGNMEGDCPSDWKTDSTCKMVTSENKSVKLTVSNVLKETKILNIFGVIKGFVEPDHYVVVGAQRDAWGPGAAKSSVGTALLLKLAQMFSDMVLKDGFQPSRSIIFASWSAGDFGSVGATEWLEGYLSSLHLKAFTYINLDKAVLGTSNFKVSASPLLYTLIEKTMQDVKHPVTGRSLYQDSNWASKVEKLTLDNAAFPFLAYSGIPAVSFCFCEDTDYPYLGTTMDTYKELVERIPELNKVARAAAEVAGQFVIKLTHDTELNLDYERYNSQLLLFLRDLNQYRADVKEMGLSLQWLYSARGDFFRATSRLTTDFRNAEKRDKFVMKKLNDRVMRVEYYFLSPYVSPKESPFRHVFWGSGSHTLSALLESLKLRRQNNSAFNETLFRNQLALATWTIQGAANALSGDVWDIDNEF

B1: Hu7A4.v5.Fab (Fab, V domains shown)
VH: EVQLVQSGAEVKKPGASVKVSCKASGYTFTDYAMHWVRQAPGQGLEWMGGISTYFGRTNYNQKFKGRVTMTRDTSISTAYMELSRLRSDDTAVYYCARGLSGNYVMDYWGQGTTVTVSS
VL: DIVMTQSPDSLAVSLGERATINCRASESVDSYGNSFMHWYQQKPGQPPKLLIYRASNLESGIPDRFSGSGSGTDFTLTISSLQAEDVAVYYCQQSNEGPPTFGQGTKLEIK
notes: Fab
B2: Hu7A4.v8.Fab (Fab, V domains shown)
VH: B1 VH with A24G, R72V
VL: B1 VL
notes: Fab
B3: 5987 (antibody, V domains shown)
VH: QVQLVQSGAEVKKPGSSVKVSCKASGGTLSGYAISWVRQAPGQGLEWMGNIIPGFGTANYAQKSQGRVTITADESTSTAYMELSSLRSEDTAVYYCARSGGTRYGMLDVWGQGTMVTVSS
VL: EIVMTQSPATLSVSPGERATLSCRASQSVSSNLAWYQQKPGQAPRLLIYGASTRATGIPARFSGSGSGTEFTLTISSLQSEDFAVYYCQQLFLWPPRTFGGGTKVEIK
notes: anti-BACE1 IgG
B4: hu15G11.v5 IgG Ala variant G26A (HVR-H1) (antibody, name in Kabat numbering, V domains shown)
VH: EVQLVQSGAEVKKPGASVKVSCKASAYTFTSYWMHWVRQAPGQRLEWIGEINPTNGRTNYIEKFKSRATLTVDKSASTAYMELSSLRSEDTAVYYCARGTRAYHYWGQGTMVTVSS
VL: DIQMTQSPSSLSASVGDRVTITCRASDNLYSNLAWYQQKPGKSPKLLVYDATNLADGVPSRFSGSGSGTDYTLTISSLQPEDFATYYCQHFWGTPLTFGQGTKVEIK
notes: IgG in cell culture supernatant
B5: hu15G11.v5 IgG Ala variant T52A (HVR-L2) (antibody, V domains shown)
VH: B4 VH with A26G
VL: B4 VL with T52A
notes: as for B4
B6: hu15G11.v5 IgG Ala variant I60A (HVR-H2) (antibody, name in Kabat numbering, V domains shown)
VH: B4 VH with A26G, I61A
VL: B4 VL
notes: IgG in cell culture supernatant; Kabat numbers after 52a lie one below the linear count
B7: hu15G11.v5 IgG Ala variant S31A (HVR-H1) (antibody, name in Kabat numbering, V domains shown)
VH: B4 VH with A26G, S31A
VL: B4 VL
notes: IgG in cell culture supernatant; also called S31A (heavy chain)
B8: hu15G11.v5 IgG Ala variant T30A (HVR-H1) (antibody, name in Kabat numbering, V domains shown)
VH: B4 VH with A26G, T30A
VL: B4 VL
notes: as for B4
B9: hu15G11.v5 IgG Ala variant K64A (HVR-H2) (antibody, name in Kabat numbering, V domains shown)
VH: B4 VH with A26G, K65A
VL: B4 VL
notes: as for B6
B10: hu15G11.v5 IgG Ala variant N53A (HVR-L2) (antibody, V domains shown)
VH: B4 VH with A26G
VL: B4 VL with N53A
notes: as for B4
B11: hu15G11.v5 IgG Ala variant L33A (HVR-L1) (antibody, V domains shown)
VH: B4 VH with A26G
VL: B4 VL with L33A
notes: as for B4
B12: hu15G11.v5 IgG Ala variant Y30A (HVR-L1) (antibody, V domains shown)
VH: B4 VH with A26G
VL: B4 VL with Y30A
notes: as for B4
B13: hu15G11.v5 IgG Ala variant G49A (HVR-H2) (antibody, name in Kabat numbering, V domains shown)
VH: B4 VH with A26G, G49A
VL: B4 VL
notes: as for B4
B14: hu15G11.v5 IgG Ala variant S31A (HVR-L1) (antibody, V domains shown)
VH: B4 VH with A26G
VL: B4 VL with S31A
notes: IgG in cell culture supernatant; also called S31A (light chain)
B15: hu15G11.v5 IgG Ala variant L29A (HVR-L1) (antibody, V domains shown)
VH: B4 VH with A26G
VL: B4 VL with L29A
notes: as for B4
B16: hu15G11.v5 IgG Ala variant N32A (HVR-L1) (antibody, V domains shown)
VH: B4 VH with A26G
VL: B4 VL with N32A
notes: as for B4
B17: hu15G11.v5 IgG Ala variant Y32A (HVR-H1) (antibody, name in Kabat numbering, V domains shown)
VH: B4 VH with A26G, Y32A
VL: B4 VL
notes: as for B4
B18: hu15G11.v5 IgG Ala variant S26A (HVR-L1) (antibody, V domains shown)
VH: B4 VH with A26G
VL: B4 VL with S26A
notes: as for B4
B19: hu15G11.v5 IgG Ala variant R56A (HVR-H2) (antibody, name in Kabat numbering, V domains shown)
VH: B4 VH with A26G, R57A
VL: B4 VL
notes: as for B6
B20: hu15G11.v5 IgG Ala variant M34A (HVR-H1) (antibody, name in Kabat numbering, V domains shown)
VH: B4 VH with A26G, M34A
VL: B4 VL
notes: as for B4
B21: hu15G11.v5 IgG Ala variant L54A (HVR-L2) (antibody, V domains shown)
VH: B4 VH with A26G
VL: B4 VL with L54A
notes: as for B4
B22: hu15G11.v5 IgG Ala variant T28A (HVR-H1) (antibody, name in Kabat numbering, V domains shown)
VH: B4 VH with A26G, T28A
VL: B4 VL
notes: as for B4
B23: hu15G11.v5 IgG Ala variant I51A (HVR-H2) (antibody, name in Kabat numbering, V domains shown)
VH: B4 VH with A26G, I51A
VL: B4 VL
notes: as for B4
B24: hu15G11.v5 IgG Ala variant Y59A (HVR-H2) (antibody, name in Kabat numbering, V domains shown)
VH: B4 VH with A26G, Y60A
VL: B4 VL
notes: as for B6
B25: hu15G11.v5 IgG Ala variant P52aA (HVR-H2) (antibody, name in Kabat numbering, V domains shown)
VH: B4 VH with A26G, P53A
VL: B4 VL
notes: as for B4
B26: hu15G11.v5 IgG Ala variant N58A (HVR-H2) (antibody, name in Kabat numbering, V domains shown)
VH: B4 VH with A26G, N59A
VL: B4 VL
notes: as for B6
B27: hu15G11.v5 IgG Ala variant N52A (HVR-H2) (antibody, V domains shown)
VH: B4 VH with A26G, N52A
VL: B4 VL
notes: IgG in cell culture supernatant; also called 15G11.N52A; 15G11.52A
B28: hu15G11.v5 IgG Ala variant K62A (HVR-H2) (antibody, name in Kabat numbering, V domains shown)
VH: B4 VH with A26G, K63A
VL: B4 VL
notes: as for B6
B29: hu15G11.v5 IgG Ala variant N28A (HVR-L1) (antibody, V domains shown)
VH: B4 VH with A26G
VL: B4 VL with N28A
notes: as for B4
B30: hu15G11.v5 IgG Ala variant R24A (HVR-L1) (antibody, V domains shown)
VH: B4 VH with A26G
VL: B4 VL with R24A
notes: as for B4
B31: hu15G11.v5 IgG Ala variant T53A (HVR-H2) (antibody, V domains shown)
VH: B4 VH with A26G, T54A
VL: B4 VL
notes: IgG in cell culture supernatant; also called 15G11.T53A; 15G11.53A
B32: hu15G11.v5 IgG Ala variant S65A (HVR-H2) (antibody, name in Kabat numbering, V domains shown)
VH: B4 VH with A26G, S66A
VL: B4 VL
notes: as for B6

Target: T2, human TfR extracellular domain with N-terminal His tag (human, UniProt P02786 89-760)
T2 construct: Biotinylated in some assays; also called huTfR; HuTfR
Test: SPR, TfR captured by anti-His, Fab injected;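 further: single cycle kinetics with a Fab dilution series, fitted by a one-to-one Langmuir model or a steady state model, KD taken as koff over kon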
Target sequence in this assay (P02786 89-760 G142S): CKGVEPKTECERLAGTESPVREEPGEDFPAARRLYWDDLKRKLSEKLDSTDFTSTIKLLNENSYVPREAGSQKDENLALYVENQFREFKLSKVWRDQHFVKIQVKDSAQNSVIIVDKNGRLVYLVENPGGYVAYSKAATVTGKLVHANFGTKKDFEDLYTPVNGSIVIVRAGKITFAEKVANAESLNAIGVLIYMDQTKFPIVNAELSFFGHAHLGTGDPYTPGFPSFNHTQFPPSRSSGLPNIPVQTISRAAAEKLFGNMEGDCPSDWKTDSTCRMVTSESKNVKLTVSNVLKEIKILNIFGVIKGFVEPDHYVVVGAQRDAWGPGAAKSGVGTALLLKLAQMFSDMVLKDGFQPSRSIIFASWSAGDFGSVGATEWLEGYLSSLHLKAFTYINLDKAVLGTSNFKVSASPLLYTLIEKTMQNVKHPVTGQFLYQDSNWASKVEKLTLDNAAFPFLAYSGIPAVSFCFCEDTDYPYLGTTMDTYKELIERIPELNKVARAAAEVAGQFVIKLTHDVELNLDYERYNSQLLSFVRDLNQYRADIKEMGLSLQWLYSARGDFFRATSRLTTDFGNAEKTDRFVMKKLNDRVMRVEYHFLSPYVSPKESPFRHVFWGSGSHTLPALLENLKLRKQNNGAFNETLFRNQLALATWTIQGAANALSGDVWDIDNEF
Method: Antibody affinities were measured using surface plasmon resonance (“SPR”) (Biacore™, GE Healthcare). Anti-His antibody (Qiagen) was coupled onto four different flow cells of a BIACORE™ CM5 sensor chip (Biacore, Inc., Piscataway, N.J.) at between 6000 and 8000 RU. Immobilization was achieved by random coupling through amino groups using a protocol provided by the manufacturer. 10×HBS-P (Biacore, Inc., Piscataway, N.J.) was diluted in water and served as the dilution and running buffer. Purified human or cyno TfR was captured, followed by a 3-fold dilution series of IgG or Fab that was injected at a flow rate of 30 ml/min using the single cycle kinetics method. Affinity constants were determined using a simple 1:1 Langmuir binding model or using a steady state model when kₒₙ or koff was beyond the detection limit. The equilibrium dissociation constant (KD) was calculated as the ratio of association rate constant (kₒₙ) and dissociation rate constant (koff).
In both cases, the SPR experiments were performed as described above.

Kd [pM] | koff [s⁻¹] | kon [M⁻¹ s⁻¹] | Binder
686 | 0.00153 | 2.24e+06 | B1
1150 | 0.00107 | 928000 | B2

Target: T3, human BACE1 ECD
T3 construct: analyte of the Octet assay (200 nM) and enzyme of the first short substrate assay; also called human BACE1 extracellular domain
Test: Octet, pH 5.0;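 further: antibodies captured on anti-human capture sensor tips, dissociation monitored in PBS with BSA buffer, kinetics fitted with a one-to-one binding model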
Method: (§1) Anti-BACE1 antibodies were loaded onto anti-human capture (AHC) sensors (tips) followed by 60 seconds baseline in assay buffer. […] Tips were transferred to assay buffer for 5 minutes, 30 minutes, or 120 minutes depending on the off-rate, for off-rate measurement. Assay buffer was either PBS+0.1% BSA, pH 7.5; or PBS+0.1% BSA, pH 5.0. Kinetics were analyzed using a 1:1 binding model.

T3 sequence (single chain, as listed by the source limits assumed): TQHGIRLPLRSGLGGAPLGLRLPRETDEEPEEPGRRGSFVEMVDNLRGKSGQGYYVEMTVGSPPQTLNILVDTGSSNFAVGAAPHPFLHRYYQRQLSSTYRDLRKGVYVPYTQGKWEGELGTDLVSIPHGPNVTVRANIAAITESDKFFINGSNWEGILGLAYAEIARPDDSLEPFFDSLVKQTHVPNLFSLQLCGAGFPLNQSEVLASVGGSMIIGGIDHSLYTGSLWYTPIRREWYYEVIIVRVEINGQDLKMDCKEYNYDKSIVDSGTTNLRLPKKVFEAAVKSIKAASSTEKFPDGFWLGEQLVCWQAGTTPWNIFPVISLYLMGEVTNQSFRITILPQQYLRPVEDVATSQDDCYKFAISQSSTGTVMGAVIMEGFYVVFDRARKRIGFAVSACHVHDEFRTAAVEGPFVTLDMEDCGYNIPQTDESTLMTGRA

Kd [pM] | Binder
< 250 | B3

Target: T4, murine BACE1 ECD
T4 construct: analyte of the Octet assay (200 nM) and enzyme of the first short substrate assay
Test: Octet, pH 5.0;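 further: antibodies captured on anti-human capture sensor tips, dissociation monitored in PBS with BSA buffer, kinetics fitted with a one-to-one binding model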
Method: as §1

T4 sequence (single chain, as listed by the source limits assumed): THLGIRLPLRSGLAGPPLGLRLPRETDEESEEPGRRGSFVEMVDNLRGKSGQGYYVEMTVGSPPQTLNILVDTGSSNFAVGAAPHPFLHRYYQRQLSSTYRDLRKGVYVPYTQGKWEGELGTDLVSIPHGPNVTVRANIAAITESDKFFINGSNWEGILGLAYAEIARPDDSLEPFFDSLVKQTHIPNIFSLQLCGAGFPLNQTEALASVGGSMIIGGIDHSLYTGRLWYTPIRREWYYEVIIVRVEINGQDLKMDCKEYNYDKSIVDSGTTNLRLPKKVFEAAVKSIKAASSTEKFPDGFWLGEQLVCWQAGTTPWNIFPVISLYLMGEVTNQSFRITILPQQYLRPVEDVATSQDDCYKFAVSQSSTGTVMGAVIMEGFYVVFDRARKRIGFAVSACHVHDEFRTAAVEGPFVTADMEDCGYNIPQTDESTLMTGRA

Kd [pM] | Binder
< 290 | B3

Target: T3, human BACE1 ECD
Test: Octet, pH 7.5;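 further: antibodies captured on anti-human capture sensor tips, dissociation monitored in PBS with BSA, Kd obtained from kinetic fit to a one-to-one binding model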
Method: as §1

Kd [pM] | Binder
< 320 | B3

Target: T4, murine BACE1 ECD
Test: Octet, pH 7.5;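 further: antibodies captured on anti-human capture sensor tips, dissociation monitored in PBS with BSA, Kd obtained from kinetic fit to a one-to-one binding model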
Method: as §1

Kd [pM] | Binder
< 290 | B3

Target: BACE1 in primary mouse cortical neurons (mouse, UniProt P56818 46-501)
Test: cell-based or functional assay

Sequence of BACE1 in primary mouse cortical neurons (P56818 46-501): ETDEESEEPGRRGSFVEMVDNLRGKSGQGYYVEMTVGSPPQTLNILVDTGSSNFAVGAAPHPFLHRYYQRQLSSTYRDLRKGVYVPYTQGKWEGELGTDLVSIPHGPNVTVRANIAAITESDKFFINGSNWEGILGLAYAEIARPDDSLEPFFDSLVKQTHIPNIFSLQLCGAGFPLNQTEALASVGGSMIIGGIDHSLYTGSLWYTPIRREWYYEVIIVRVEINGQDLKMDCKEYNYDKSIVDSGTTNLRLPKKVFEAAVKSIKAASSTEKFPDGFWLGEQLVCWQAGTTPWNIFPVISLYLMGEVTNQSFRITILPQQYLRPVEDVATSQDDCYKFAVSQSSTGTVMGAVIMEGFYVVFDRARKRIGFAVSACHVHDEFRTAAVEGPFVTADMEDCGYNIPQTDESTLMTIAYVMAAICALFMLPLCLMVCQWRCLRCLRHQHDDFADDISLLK

IC50, Abeta x-40 in mouse cortical neurons [pM] | maximal % inhibition of Abeta x-40 [%] | Binder
7200 | 69 | B3

Target: T2, human TfR extracellular domain with …
Test: ELISA, TfR-coated plate, IgG in culture supernatant;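 further: human or cynomolgus TfR coated at 2 µg/mL, supernatant IgG titrated in 1:5 steps for 1 h, bound antibody read with HRP anti-human Fcγ and TMB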
Method: (§2) The Hu/Cy binding ELISA was performed in maxisorp plates coated with 2 μg/ml of purified human or cyno TfR in PBS at 4° C. overnight. Plates were washed with PBS/0.05% Tween 20 and blocked using Superblock blocking buffer in PBS (Thermo Scientific, Hudson, N.H.). Cell culture supernatants containing the expressed Ala scan variant IgGs were serially diluted 1:5 and added to the wells for 1 h. Plates were washed with PBS/0.05% Tween 20 and 1:1000 diluted HRP-Goat-anti human Fcγ (Jackson ImmunoResearch) was added the plate and incubated for 1 hour at room temperature. Plates were washed with PBS/0.05% Tween 20 and detected using TMB substrate (BioFX Laboratories, Owings Mills).

EC50 [ng/mL] | Binder
1.1 | B4
0.2 | B5
0.3 | B6
0.05 | B7
0.4 | B8
0.3 | B9
0.3 | B10
0.05 | B11
0.3 | B12
0.3 | B13
0.3 | B14
0.3 | B15
1.6 | B16
0.4 | B17
0.2 | B18
55.1 | B19
0.4 | B20
0.4 | B21
0.4 | B22
0.2 | B23
0.3 | B24
3.9 | B25
6.3 | B26
0.3 | B27
0.3 | B28
0.2 | B29
0.1 | B30
0.3 | B31
0.2 | B32

Target: T1, cyno TfR extracellular domain …
Test: as above
Method: as §2

EC50 [ng/mL] | Binder
6.1 | B4
0.3 | B5
0.7 | B6
0.1 | B7
0.9 | B8
0.6 | B9
0.6 | B10
0.1 | B11
1 | B12
1.1 | B13
0.7 | B14
0.9 | B15
4 | B16
1.4 | B17
0.6 | B18
5410 | B19
1.1 | B20
0.5 | B21
0.8 | B22
0.6 | B23
0.7 | B24
8.1 | B25
80.4 | B26
0.9 | B27
0.7 | B28
0.8 | B29
0.4 | B30
0.7 | B31
0.7 | B32
